Measured values taken from patent publication US20210206859A1 (DRAGONFLY THERAPEUTICS, published 2021).

T1: B7-H3 expressed on human cancer cell lines (786-O, BT-474, HCC1954) (human, UniProt Q5ZPR3 29-534)
T1 construct: The assay used B7-H3 expressed endogenously on the cell lines; also called CD276; cell expressed B7-H3
T1 sequence: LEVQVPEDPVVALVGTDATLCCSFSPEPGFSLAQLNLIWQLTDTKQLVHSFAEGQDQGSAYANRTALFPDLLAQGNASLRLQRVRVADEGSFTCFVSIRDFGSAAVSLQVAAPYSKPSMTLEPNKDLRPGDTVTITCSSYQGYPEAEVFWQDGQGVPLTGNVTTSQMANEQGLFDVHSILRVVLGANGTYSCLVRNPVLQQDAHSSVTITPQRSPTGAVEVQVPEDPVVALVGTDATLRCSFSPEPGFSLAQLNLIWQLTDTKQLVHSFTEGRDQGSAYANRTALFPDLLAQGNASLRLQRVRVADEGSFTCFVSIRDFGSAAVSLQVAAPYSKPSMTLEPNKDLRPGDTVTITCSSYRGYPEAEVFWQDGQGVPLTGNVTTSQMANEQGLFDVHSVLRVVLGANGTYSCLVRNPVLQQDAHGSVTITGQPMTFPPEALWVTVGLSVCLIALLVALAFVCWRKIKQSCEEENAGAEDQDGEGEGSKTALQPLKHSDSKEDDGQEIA

B1: huM30 (Daiichi Sankyo, Inc.) parental monoclonal antibody (antibody, V domains shown)
VH: QVQLVQSGAEVKKPGSSVKVSCKASGYTFTNYVMHWVRQAPGQGLEWMGYINPYNDDVKYNEKFKGRVTITADESTSTAYMELSSLRSEDTAVYYCARWGYYGSPLYYFDYWGQGTLVTVSS
VL: EIVLTQSPATLSLSPGERATLSCRASSRLIYMHWYQQKPGQAPRPLIYATSNLASGIPARFSGSGSGTDFTLTISSLEPEDFAVYYCQQWNSNPPTFGQGTKVEIK
notes: also called parental mAb; B7-H3 parental monoclonal antibody
B2: huAb13v1 (AbbVie Inc.) parental monoclonal antibody (antibody, V domains shown)
VH: EVQLQESGPGLVKPSETLSLTCAVTGYSITSGYSWHWIRQFPGNGLEWMGYIHSSGSTNYNPSLKSRISISRDTSKNQFFLKLSSVTAADTAVYYCAGYDDYFEYWGQGTTVTVSS
VL: DIQMTQSPSSLSASVGDRVTITCKASQNVGFNVAWYQQKPGKSPKALIYSASYRYSGVPSRFSGSGSGTDFTLTISSLQPEDFAEYFCQQYNWYPFTFGQGTKLEIK
notes: as for B1
B3: A49MI-F3′-TriNKET-huAb13v1 (bispecific antibody, human IgG1, kappa)
scFv: DIQMTQSPSSLSASVGDRVTITCKASQNVGFNVAWYQQKPGKSPKALIYSASYRYSGVPSRFSGSGSGTDFTLTISSLQPEDFAEYFCQQYNWYPFTFGCGTKLEIKGGGGSGGGGSGGGGSGGGGSEVQLQESGPGLVKPSETLSLTCAVTGYSITSGYSWHWIRQFPGNCLEWMGYIHSSGSTNYNPSLKSRISISRDTSKNQFFLKLSSVTAADTAVYYCAGYDDYFEYWGQGTTVTVSSASDKTHTCPPCPAPELLGGPSVFLFPPKPKDTLMISRTPEVTCVVVDVSHEDPEVKFNWYVDGVEVHNAKTKPREEQYNSTYRVVSVLTVLHQDWLNGKEYKCKVSNKALPAPIEKTISKAKGQPREPRVYTLPPCRDELTKNQVSLTCLVKGFYPSDIAVEWESNGQPENNYKTTPPVLVSDGSFTLYSKLTVDKSRWQQGNVFSCSVMHEALHNHYTQKSLSLSPG
heavy: EVQLVESGGGLVKPGGSLRLSCAASGFTFSSYSMNWVRQAPGKGLEWVSSISSSSSYIYYADSVKGRFTISRDNAKNSLYLQMNSLRAEDTAVYYCARGAPIGAAAGWFDPWGQGTLVTVSSASTKGPSVFPLAPSSKSTSGGTAALGCLVKDYFPEPVTVSWNSGALTSGVHTFPAVLQSSGLYSLSSVVTVPSSSLGTQTYICNVNHKPSNTKVDKKVEPKSCDKTHTCPPCPAPELLGGPSVFLFPPKPKDTLMISRTPEVTCVVVDVSHEDPEVKFNWYVDGVEVHNAKTKPREEQYNSTYRVVSVLTVLHQDWLNGKEYKCKVSNKALPAPIEKTISKAKGQPREPQVCTLPPSRDELTENQVSLTCLVKGFYPSDIAVEWESNGQPENNYKTTPPVLDSDGSFFLYSWLTVDKSRWQQGNVFSCSVMHEALHNHYTQKSLSLSPG
light: DIQMTQSPSSVSASVGDRVTITCRASQGISSWLAWYQQKPGKAPKLLIYAASSLQSGVPSRFSGSGSGTDFTLTISSLQPEDFATYYCQQGVSFPRTFGGGTKVEIKRTVAAPSVFIFPPSDEQLKSGTASVVCLLNNFYPREAKVQWKVDNALQSGNSQESVTEQDSKDSTYSLSSTLTLSKADYEKHKVYACEVTHQGLSSPVTKSFNRGEC
notes: also called TriNKET bearing 13v1 B7-H3 targeting domain; B7-H3 TriNKET
B4: A49MI-F3′-TriNKET-huM30 (bispecific antibody, human IgG1, kappa)
scFv: EIVLTQSPATLSLSPGERATLSCRASSRLIYMHWYQQKPGQAPRPLIYATSNLASGIPARFSGSGSGTDFTLTISSLEPEDFAVYYCQQWNSNPPTFGCGTKVEIKGGGGSGGGGSGGGGSGGGGSQVQLVQSGAEVKKPGSSVKVSCKASGYTFTNYVMHWVRQAPGQCLEWMGYINPYNDDVKYNEKFKGRVTITADESTSTAYMELSSLRSEDTAVYYCARWGYYGSPLYYFDYWGQGTLVTVSSASDKTHTCPPCPAPELLGGPSVFLFPPKPKDTLMISRTPEVTCVVVDVSHEDPEVKFNWYVDGVEVHNAKTKPREEQYNSTYRVVSVLTVLHQDWLNGKEYKCKVSNKALPAPIEKTISKAKGQPREPRVYTLPPCRDELTKNQVSLTCLVKGFYPSDIAVEWESNGQPENNYKTTPPVLVSDGSFTLYSKLTVDKSRWQQGNVFSCSVMHEALHNHYTQKSLSLSPG
heavy: EVQLVESGGGLVKPGGSLRLSCAASGFTFSSYSMNWVRQAPGKGLEWVSSISSSSSYIYYADSVKGRFTISRDNAKNSLYLQMNSLRAEDTAVYYCARGAPIGAAAGWFDPWGQGTLVTVSSASTKGPSVFPLAPSSKSTSGGTAALGCLVKDYFPEPVTVSWNSGALTSGVHTFPAVLQSSGLYSLSSVVTVPSSSLGTQTYICNVNHKPSNTKVDKKVEPKSCDKTHTCPPCPAPELLGGPSVFLFPPKPKDTLMISRTPEVTCVVVDVSHEDPEVKFNWYVDGVEVHNAKTKPREEQYNSTYRVVSVLTVLHQDWLNGKEYKCKVSNKALPAPIEKTISKAKGQPREPQVCTLPPSRDELTENQVSLTCLVKGFYPSDIAVEWESNGQPENNYKTTPPVLDSDGSFFLYSWLTVDKSRWQQGNVFSCSVMHEALHNHYTQKSLSLSPG
light: DIQMTQSPSSVSASVGDRVTITCRASQGISSWLAWYQQKPGKAPKLLIYAASSLQSGVPSRFSGSGSGTDFTLTISSLQPEDFATYYCQQGVSFPRTFGGGTKVEIKRTVAAPSVFIFPPSDEQLKSGTASVVCLLNNFYPREAKVQWKVDNALQSGNSQESVTEQDSKDSTYSLSSTLTLSKADYEKHKVYACEVTHQGLSSPVTKSFNRGEC
notes: also called TriNKET bearing M30 B7-H3 targeting domain; B7-H3 TriNKET
B5: A49MI-F3′-TriNKET-Enoblituzumab (bispecific antibody, human IgG1, kappa)
scFv: DIQLTQSPSFLSASVGDRVTITCKASQNVDTNVAWYQQKPGKAPKALIYSASYRYSGVPSRFSGSGSGTDFTLTISSLQPEDFATYYCQQYNNYPFTFGCGTKLEIKGGGGSGGGGSGGGGSGGGGSEVQLVESGGGLVQPGGSLRLSCAASGFTFSSFGMHWVRQAPGKCLEWVAYISSDSSAIYYADTVKGRFTISRDNAKNSLYLQMNSLRDEDTAVYYCGRGRENIYYGSRLDYWGQGTTVTVSSASDKTHTCPPCPAPELLGGPSVFLFPPKPKDTLMISRTPEVTCVVVDVSHEDPEVKFNWYVDGVEVHNAKTKPREEQYNSTYRVVSVLTVLHQDWLNGKEYKCKVSNKALPAPIEKTISKAKGQPREPRVYTLPPCRDELTKNQVSLTCLVKGFYPSDIAVEWESNGQPENNYKTTPPVLVSDGSFTLYSKLTVDKSRWQQGNVFSCSVMHEALHNHYTQKSLSLSPG
heavy: EVQLVESGGGLVKPGGSLRLSCAASGFTFSSYSMNWVRQAPGKGLEWVSSISSSSSYIYYADSVKGRFTISRDNAKNSLYLQMNSLRAEDTAVYYCARGAPIGAAAGWFDPWGQGTLVTVSSASTKGPSVFPLAPSSKSTSGGTAALGCLVKDYFPEPVTVSWNSGALTSGVHTFPAVLQSSGLYSLSSVVTVPSSSLGTQTYICNVNHKPSNTKVDKKVEPKSCDKTHTCPPCPAPELLGGPSVFLFPPKPKDTLMISRTPEVTCVVVDVSHEDPEVKFNWYVDGVEVHNAKTKPREEQYNSTYRVVSVLTVLHQDWLNGKEYKCKVSNKALPAPIEKTISKAKGQPREPQVCTLPPSRDELTENQVSLTCLVKGFYPSDIAVEWESNGQPENNYKTTPPVLDSDGSFFLYSWLTVDKSRWQQGNVFSCSVMHEALHNHYTQKSLSLSPG
light: DIQMTQSPSSVSASVGDRVTITCRASQGISSWLAWYQQKPGKAPKLLIYAASSLQSGVPSRFSGSGSGTDFTLTISSLQPEDFATYYCQQGVSFPRTFGGGTKVEIKRTVAAPSVFIFPPSDEQLKSGTASVVCLLNNFYPREAKVQWKVDNALQSGNSQESVTEQDSKDSTYSLSSTLTLSKADYEKHKVYACEVTHQGLSSPVTKSFNRGEC
notes: also called TriNKET bearing Enoblituzumab B7-H3 targeting domain; B7-H3 TriNKET
B6: Enoblituzumab (MacroGenics, Inc.) parental monoclonal antibody (antibody, V domains shown)
VH: EVQLVESGGGLVQPGGSLRLSCAASGFTFSSFGMHWVRQAPGKGLEWVAYISSDSSAIYYADTVKGRFTISRDNAKNSLYLQMNSLRDEDTAVYYCGRGRENIYYGSRLDYWGQGTTVTVSS
VL: DIQLTQSPSFLSASVGDRVTITCKASQNVDTNVAWYQQKPGKAPKALIYSASYRYSGVPSRFSGSGSGTDFTLTISSLQPEDFATYYCQQYNNYPFTFGQGTKLEIKR
notes: as for B1

molecular target: T1, B7-H3 expressed on human cancer cell …; test: flow cytometry on 786-O, BT-474 and HCC1954 cells, anti-human IgG detection
Procedure: Human cancer cell lines expressing B7-H3 were used to assess tumor antigen binding of TriNKETs derived from B7-H3 targeting clones. Human breast cancer cell lines BT-474 and HCC1954 and renal cancer cell line 786-O were used to assess binding of TriNKETs to cell expressed B7-H3. Varying concentrations of either TriNKET or monoclonal antibody were allowed to bind cells for 20 minutes on ice, after which cells were washed and the amount of bound TriNKET/monoclonal antibody was measured using fluorophore conjugated anti-human IgG secondary antibody. Cells were then analyzed by flow cytometry and binding MFI to cell expressed B7-H3 was plotted against varying concentration.

Binder	binding result
B1	binds
B2	binds
B3	binds
B4	binds
B5	binds
B6	binds
